T1: hIAPP-T7n (human islet amyloid polypeptide fused through a GGSGG linker to the N-terminal half of split T7 … (human))
T1 chain: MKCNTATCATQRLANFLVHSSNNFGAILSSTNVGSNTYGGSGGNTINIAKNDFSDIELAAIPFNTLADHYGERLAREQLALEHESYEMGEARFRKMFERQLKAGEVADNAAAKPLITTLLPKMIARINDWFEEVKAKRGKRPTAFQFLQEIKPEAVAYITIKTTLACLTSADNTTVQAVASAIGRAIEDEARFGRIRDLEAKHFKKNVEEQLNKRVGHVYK


Experiments:
[1] = target: Aβ42-T7n (amyloid-β42 fused through a GGSGG linker to the N-terminal half of split T7 RNA polymerase); assay: cell-based or functional assay
[2] = target: T1, hIAPP-T7n (human islet amyloid …); assay: cell-based or functional assay

Row | Binder | propagation of clonal SP on hIAPP against Aβ42 selection cells [2] | also measured
1 | cyclo(CKVWQLL) (not fully specified; printed as cyclo-CKVWQLL) |  | fold phage propagation on E. coli encoding the Aβ42-T7n selection, against scrambled control [1]: ~300 fold
2 | cyclo(CKVWQLL) (not fully specified; printed as cyclo-CKVWQLL) [cyclo-CKVWQLL (SEQ ID NO:30) encoded on parent selection phage as SICLOPPS precursor] |  | fold phage propagation on E. coli encoding the Aβ42-T7n selection, against SP carrying scrambled control cyclo-CVQWLKL [1]: ~500 fold
3 | cyclo(CRCVFSG) (not fully specified; printed as cyclo-CRCVFSG; cysteine pairing not given here) [cyclo-CRCVFSG (SEQ ID NO:69) encoded on selection phage as SICLOPPS precursor] | ~10 fold | 
4 | cyclo(CDLGVFR) (not fully specified; printed as cyclo-CDLGVFR) [cyclo-CDLGVFR (SEQ ID NO:68) encoded on selection phage as SICLOPPS precursor] | ~1000 fold | 

— patent US20250122242A1 (WISCONSIN ALUMNI RESEARCH FOUNDATION, published 2025)
